The labels stand for the following.
B2: FLAG-Sestrin3 (other)
chain: MNRGGGSPSAAANYLLCTNCRKVLRKDKRIRVSQPLTRGPSAFIPEKEVVQANTVDERTNFLVEEYSTSGRLDNITQVMSLHTQYLESFLRSQFYMLRMDGPLPLPYRHYIAIMAAARHQCSYLINMHVDEFLKTGGIAEWLNGLEYVPQRLKNLNEINKLLAHRPWLITKEHIQKLVKTGENNWSLPELVHAVVLLAHYHALASFVFGSGINPERDPEISNGFRLISVNNFCVCDLANDNNIENASLSGSNFGIVDSLSELEALMERMKRLQEEREDEEASQEEMSTRFEKEKKESLFVVSGDTFHSFPHSDFEDDMIITSDVSRYIEDPGFGYEDFARRGEEHLPTFRAQDYTWENHGFSLVNRLYSDIGHLLDEKFRMVYNLTYNTMATHEDVDTTMLRRALFNYVHCMFGIRYDDYDYGEVNQLLERSLKVYIKTVTCYPERTTKRMYDSYWRQFKHSEKVHVNLLLMEARMQAELLYALRAITRHLT
notes: also called recombinant, FLAG-tagged Sestrin3; not shown: FLAG tag
B3: FLAG-Sestrin2 (other)
chain: MIVADSECRAELKDYLRFAPGGVGDSGPGEEQRESRARRGPRGPSAFIPVEEVLREGAESLEQHLGLEALMSSGRVDNLAVVMGLHPDYFTSFWRLHYLLLHTDGPLASSWRHYIAIMAAARHQCSYLVGSHMAEFLQTGGDPEWLLGLHRAPEKLRKLSEINKLLAHRPWLITKEHIQALLKTGEHTWSLAELIQALVLLTHCHSLSSFVFGCGILPEGDADGSPAPQAPTPPSEQSSPPSRDPLNNSGGFESARDVEALMERMQQLQESLLRDEGTSQEEMESRFELEKSESLLVTPSADILEPSPHPDMLCFVEDPTFGYEDFTRRGAQAPPTFRAQDYTWEDHGYSLIQRLYPEGGQLLDEKFQAAYSLTYNTIAMHSGVDTSVLRRAIWNYIHCVFGIRYDDYDYGEVNQLLERNLKVYIKTVACYPEKTTRRMYNLFWRHFRHSEKVHVNLLLLEARMQAALLYALRAITRYMT
notes: Transiently or stably expressed in HEK-293T cells; also called FLAG-tagged wild-type Sestrin2; wild-type Sestrin2; not shown: FLAG tag
B5: metap2 control protein (enzyme, UniProt P50579 1-478, looked up, not shown: small tags and cut ends)
chain: MAGVEEVAASGSHLNGDLDPDDREEGAASTAEEAAKKKRRKKKKSKGPSAAGEQEPDKESGASVDEVARQLERSALEDKERDEDDEDGDGDGDGATGKKKKKKKKKRGPKVQTDPPSVPICDLYPNGVFPKGQECEYPPTQDGRTAAWRTTSEEKKALDQASEEIWNDFREAAEAHRQVRKYVMSWIKPGMTMIEICEKLEDCSRKLIKENGLNAGLAFPTGCSLNNCAAHYTPNAGDTTVLQYDDICKIDFGTHISGRIIDCAFTVTFNPKYDTLLKAVKDATNTGIKCAGIDVRLCDVGEAIQEVMESYEVEIDGKTYQVKPIRNLNGHSIGQYRIHAGKTVPIVKGGEATRMEEGEVYAIETFGSTGKGVVHDDMECSHYMKNFDVGHVPIRLPRTKHLLNVINENFGTLAFCRRWLDRLGESKYLMALKNLCDLGIVDPYPPLCDIKGSYTAQFEHTILLRPTCKEVVSRGDDY
notes: Control protein; also called FLAG-Metap2; FLAG-metap2

Experiment [1] addresses T1, GATOR1, recombinant (HA-Depdc5, HA-Npr13, HA-Npr12) (UniProt O75140 1-1603; Q8WTW4 1-380; Q12980 1-569, limits assumed).
T1 construct: also called GATOR1 multi-protein complex; not shown: HA tag
In words: anti-FLAG co-immunoprecipitation, transient co-expression in HEK-293T, immunoblot (FIG. 1B). Here is the method:
(§1) Two million HEK-293T cells were plated in 10 cm culture dishes and grown. Twenty-four hours later, cells were transfected via the polyethylenimine method (Boussif et al., 1995) with one or more of the pRK5-based cDNA expression plasmids in the following amounts: 300 ng FLAG-Metap2, 100 ng FLAG-WDR24, 50 ng FLAG-Sestrin1, 25 ng FLAG-Sestrin2, 200 ng FLAG-Sestrin3, 2 ng of FLAG-S6K1, or 200 ng each of HA-Mios, HA-WDR59, HA-WDR24, HA-Sec13, HA-Seh1L, HA-Depdc5, HA-Npr13, or HA-Npr12. The total amount of plasmid DNA in each transfection was normalized to 5 μg with empty pRK5.
(§2) The beads were washed 3 times with lysis buffer containing 500 mM NaCl. In the case of transient cotransfection assays to explore the interaction of the Sestrins with GATOR2, beads were incubated in the final salt wash for 30 minutes to reduce non-specific binding.

The experiment “metap2 control protein” deals with B5. The experiment is described as above. As to the method:
as §1, §2

The target in experiment [2] is T2, FLAG-DEPDCS, a GATOR1 component (UniProt O75140 1-1603, limits assumed).
T2 construct: also called FLAG-DEPDC5; not shown: FLAG tag
The experiment can be described thus: anti-FLAG co-immunoprecipitation from stably expressing HEK-293T, immunoblot (FIG. 5A). Background: A western blot detects proteins with antibodies after separation by electrophoresis.

The experiment “FLAG-Sestrin2” concerns the target B3. In words: anti-FLAG co-immunoprecipitation, transient co-expression in HEK-293T, immunoblot (FIG. 1B). Here is the method: as §1, §2
The experiment “FLAG-Sestrin3” has as its target B2. The description is as above. Here is the method: as §1, §2

T1 sequence (O75140 whole entry, chain 1 of 3): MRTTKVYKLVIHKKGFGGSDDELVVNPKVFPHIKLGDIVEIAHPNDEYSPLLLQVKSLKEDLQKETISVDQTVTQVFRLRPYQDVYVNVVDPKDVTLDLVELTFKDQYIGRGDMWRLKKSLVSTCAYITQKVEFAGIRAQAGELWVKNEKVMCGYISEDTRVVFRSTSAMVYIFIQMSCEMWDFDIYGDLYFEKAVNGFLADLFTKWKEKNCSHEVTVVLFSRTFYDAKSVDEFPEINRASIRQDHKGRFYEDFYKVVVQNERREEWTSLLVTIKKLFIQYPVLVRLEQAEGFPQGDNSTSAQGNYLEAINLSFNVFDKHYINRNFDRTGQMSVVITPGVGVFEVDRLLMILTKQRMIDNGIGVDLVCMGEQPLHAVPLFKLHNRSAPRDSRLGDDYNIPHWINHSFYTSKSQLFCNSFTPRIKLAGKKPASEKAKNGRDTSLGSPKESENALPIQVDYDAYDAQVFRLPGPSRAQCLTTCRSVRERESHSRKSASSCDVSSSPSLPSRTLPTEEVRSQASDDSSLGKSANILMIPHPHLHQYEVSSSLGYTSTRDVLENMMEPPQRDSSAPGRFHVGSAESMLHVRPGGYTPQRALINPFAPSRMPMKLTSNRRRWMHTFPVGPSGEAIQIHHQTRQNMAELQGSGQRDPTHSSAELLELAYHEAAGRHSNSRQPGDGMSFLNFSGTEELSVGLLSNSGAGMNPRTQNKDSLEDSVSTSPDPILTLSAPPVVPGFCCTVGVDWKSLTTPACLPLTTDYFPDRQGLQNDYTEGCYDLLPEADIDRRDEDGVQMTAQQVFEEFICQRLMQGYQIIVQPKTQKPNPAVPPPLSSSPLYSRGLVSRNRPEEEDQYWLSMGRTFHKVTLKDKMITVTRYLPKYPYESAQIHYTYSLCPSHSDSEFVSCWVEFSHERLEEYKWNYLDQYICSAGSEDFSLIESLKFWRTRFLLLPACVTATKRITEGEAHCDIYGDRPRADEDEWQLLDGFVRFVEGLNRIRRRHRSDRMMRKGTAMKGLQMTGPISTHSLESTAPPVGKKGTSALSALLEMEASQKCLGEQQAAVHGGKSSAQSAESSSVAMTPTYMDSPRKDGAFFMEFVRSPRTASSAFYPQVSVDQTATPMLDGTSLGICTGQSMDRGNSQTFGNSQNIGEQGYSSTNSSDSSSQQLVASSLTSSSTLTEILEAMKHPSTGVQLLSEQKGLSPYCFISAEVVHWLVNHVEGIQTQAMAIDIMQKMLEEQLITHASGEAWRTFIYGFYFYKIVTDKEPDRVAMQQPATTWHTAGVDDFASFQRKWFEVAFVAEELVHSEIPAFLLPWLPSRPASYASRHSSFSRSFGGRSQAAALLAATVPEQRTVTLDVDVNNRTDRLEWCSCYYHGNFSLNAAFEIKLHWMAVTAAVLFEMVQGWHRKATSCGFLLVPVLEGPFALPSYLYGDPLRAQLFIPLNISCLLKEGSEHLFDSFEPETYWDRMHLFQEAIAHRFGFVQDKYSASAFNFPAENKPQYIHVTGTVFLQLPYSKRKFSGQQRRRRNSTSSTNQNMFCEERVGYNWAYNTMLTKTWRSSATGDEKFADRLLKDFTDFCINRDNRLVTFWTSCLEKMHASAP
T1 sequence (Q8WTW4 whole entry, chain 2 of 3): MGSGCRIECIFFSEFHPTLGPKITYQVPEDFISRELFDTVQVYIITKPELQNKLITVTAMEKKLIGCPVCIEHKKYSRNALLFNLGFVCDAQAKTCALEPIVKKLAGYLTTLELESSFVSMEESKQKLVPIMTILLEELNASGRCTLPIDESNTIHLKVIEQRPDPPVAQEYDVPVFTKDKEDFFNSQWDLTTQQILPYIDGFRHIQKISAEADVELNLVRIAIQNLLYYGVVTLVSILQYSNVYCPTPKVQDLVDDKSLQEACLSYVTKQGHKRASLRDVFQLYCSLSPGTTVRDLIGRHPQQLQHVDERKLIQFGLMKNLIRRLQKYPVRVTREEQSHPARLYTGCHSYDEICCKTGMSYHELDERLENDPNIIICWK
T1 sequence (Q12980 whole entry, chain 3 of 3): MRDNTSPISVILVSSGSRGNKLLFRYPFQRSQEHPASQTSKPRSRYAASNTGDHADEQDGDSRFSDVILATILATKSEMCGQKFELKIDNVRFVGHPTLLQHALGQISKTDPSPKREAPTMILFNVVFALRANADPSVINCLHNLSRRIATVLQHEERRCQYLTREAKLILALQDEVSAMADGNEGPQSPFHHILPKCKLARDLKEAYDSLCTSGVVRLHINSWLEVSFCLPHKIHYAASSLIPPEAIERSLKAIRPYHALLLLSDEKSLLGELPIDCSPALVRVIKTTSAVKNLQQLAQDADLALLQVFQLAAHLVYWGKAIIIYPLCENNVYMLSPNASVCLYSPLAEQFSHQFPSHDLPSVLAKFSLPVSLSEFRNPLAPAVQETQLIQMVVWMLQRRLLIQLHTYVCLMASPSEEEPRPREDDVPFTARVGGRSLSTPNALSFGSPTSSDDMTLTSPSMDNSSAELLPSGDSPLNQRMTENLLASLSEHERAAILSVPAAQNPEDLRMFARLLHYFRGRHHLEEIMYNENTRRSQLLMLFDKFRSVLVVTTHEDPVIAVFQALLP
T2 sequence (O75140 whole entry): as the sequence (O75140 whole entry, chain 1 of 3) above

B1: FLAG-Sestrin1 (other)
chain: MAEGENEVRWDGLCSRDSTTRETALENIRQTILRKTEYLRSVKETPHRPSDGLSNTESSDGLNKLLAHLLMLSKRCPFKDVREKSEFILKSIQELGIRIPRPLGQGPSRFIPEKEILQVGSEDAQMHALFADSFAALGRLDNITLVMVFHPQYLESFLKTQHYLLQMDGPLPLHYRHYIGIMAAARHQCSYLVNLHVNDFLHVGGDPKWLNGLENAPQKLQNLGELNKVLAHRPWLITKEHIEGLLKAEEHSWSLAELVHAVVLLTHYHSLASFTFGCGISPEIHCDGGHTFRPPSVSNYCICDITNGNHSVDEMPVNSAENVSVSDSFFEVEALMEKMRQLQECRDEEEASQEEMASRFEIEKRESMFVFSSDDEEVTPARAVSRHFEDTSYGYKDFSRHGMHVPTFRVQDYCWEDHGYSLVNRLYPDVGQLIDEKFHIAYNLTYNTMAMHKDVDTSMLRRAIWNYIHCMFGIRYDDYDYGEINQLLDRSFKVYIKTVVCTPEKVTKRMYDSFWRQFKHSEKVHVNLLLIEARMQAELLYALRAITRYMT
notes: also called recombinant, FLAG-tagged Sestrin1; not shown: FLAG tag
For B1, the binding result (in experiment [1]; with metap2 control protein) was “no binding” each time.

Regarding B2, the binding result in experiment [1] was “no binding”.

For the molecule B3, in experiment [1], the binding result is reported as “no binding”.

B4: endogenous Sestrin2 (other)
chain: MIVADSECRAELKDYLRFAPGGVGDSGPGEEQRESRARRGPRGPSAFIPVEEVLREGAESLEQHLGLEALMSSGRVDNLAVVMGLHPDYFTSFWRLHYLLLHTDGPLASSWRHYIAIMAAARHQCSYLVGSHMAEFLQTGGDPEWLLGLHRAPEKLRKLSEINKLLAHRPWLITKEHIQALLKTGEHTWSLAELIQALVLLTHCHSLSSFVFGCGILPEGDADGSPAPQAPTPPSEQSSPPSRDPLNNSGGFESARDVEALMERMQQLQESLLRDEGTSQEEMESRFELEKSESLLVTPSADILEPSPHPDMLCFVEDPTFGYEDFTRRGAQAPPTFRAQDYTWEDHGYSLIQRLYPEGGQLLDEKFQAAYSLTYNTIAMHSGVDTSVLRRAIWNYIHCVFGIRYDDYDYGEVNQLLERNLKVYIKTVACYPEKTTRRMYNLFWRHFRHSEKVHVNLLLLEARMQAALLYALRAITRYMT
notes: Endogenous protein of human HEK-293T cells
On to B4, for which the binding result in experiment [2] is “no binding”.

Take B5: the binding result with FLAG-Sestrin2 and with FLAG-Sestrin3 was “no binding” each time.

(Values after patent publication US20170285043A1 (WHITEHEAD INSTITUTE FOR BIOMEDICAL RESEARCH, published 2017).)
